# Results taken from the supplement of paper PMC5998384.
# Experiments:
# [1] = tested on: HeLa Kyoto; experiment: solubility in G1/S (NP-40 vs SDS abundance) (log2 ratio); higher = more soluble; settings: cell cycle stage: G1/S
# [2] = tested on: HeLa Kyoto; experiment: melting temperature (median over replicates), in situ; higher = more thermally stable
# [3] = tested on: HeLa Kyoto; experiment: solubility change mitosis vs G1/S (difference of NP-40 vs SDS log2 ratios) (log2 ratio difference); higher = more soluble in mitosis
# [4] = tested on: HeLa Kyoto; experiment: thermal stability score vs G1/S (z-score of summed log2 fold changes over temperatures); higher = more thermally stable than in G1/S
# [5] = cell cycle stage: early G1 (4.5 h after nocodazole release)
# 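Wherever melting temperature (median over replicates), in situ is given: HeLa Kyoto cells synchronized by double thymidine or nocodazole block, proteins quantified by TMT10plex mass spectrometry, three independent biological replicates.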
# 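Wherever solubility change mitosis vs G1/S (difference of NP-40 vs SDS log2 ratios) is given: synchronized HeLa Kyoto cells (double thymidine block for G1/S, nocodazole release for mitosis), protein amounts in NP-40 versus SDS lysates quantified by mass spectrometry, three biological replicates.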
# 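Wherever solubility in G1/S (NP-40 vs SDS abundance) is given: HeLa Kyoto cells arrested at G1/S by double thymidine block, proteins quantified by TMT10plex mass spectrometry in mild NP-40 versus SDS extracts, three biological replicates.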
# 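Wherever thermal stability score vs G1/S (z-score of summed log2 fold changes over temperatures) is given: synchronized HeLa Kyoto cells, proteins quantified by TMT10plex mass spectrometry, three biological replicates, mitosis taken 0.5 h after nocodazole release, G1/S directly after double thymidine block.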
Sequence,solubility in G1/S (log2) [1],melting temperature ([2]; cell cycle stage: G1/S) [°C],melting temperature ([2]; cell cycle stage: mitosis) [°C],solubility change mitosis (log2) [3],"thermal stability score [4, 5]",thermal stability score ([4]; cell cycle stage: mitosis)
MVAACRSVAGLLPRRRRCFPARAPLLRVALCLLCWTPAAVRAVPELGLWLETVNDKSGPLIFRKTMFNSTDIKLSVKSFHCSGPVKFTIVWHLKYHTCHNEHSNLEELFQKHKLSVDEDFCHYLKNDNCWTTKNENLDCNSDSQVFPSLNNKELINIRNVSNQERSMDVVARTQKDGFHIFIVSIKTENTDASWNLNVSLSMIGPHGYISASDWPLMIFYMVMCIVYILYGILWLTWSACYWKDILRIQFWIAAVIFLGMLEKAVFYSEYQNISNTGLSTQGLLIFAELISAIKRTLARLLVIIVSLGYGIVKPRLGTVMHRVIGLGLLYLIFAAVEGVMRVIGGSNHLAVVLDDIILAVIDSIFVWFIFISLAQTMKTLRLRKNTVKFSLYRHFKNTLIFAVLASIVFMGWTTKTFRIAKCQSDWMERWVDDAFWSFLFSLILIVIMFLWRPSANNQRYAFMPLIDDSDDEIEEFMVTSENLTEGIKLRASKSVSNGTAKPATSENFDEDLKWVEENIPSSFTDVALPVLVDSDEEIMTRSEMAEKMFSSEKIM [TMEM87B],-0.12,55.1,54.9,-0.177,-3.16,-3.29
MVADPPRDSKGLAAAEPTANGGLALASIEDQGAAAGGYCGSRDQVRRCLRANLLVLLTVVAVVAGVALGLGVSGAGGALALGPERLSAFVFPGELLLRLLRMIILPLVVCSLIGGAASLDPGALGRLGAWALLFFLVTTLLASALGVGLALALQPGAASAAINASVGAAGSAENAPSKEVLDSFLDLARNIFPSNLVSAAFRSYSTTYEERNITGTRVKVPVGQEVEGMNILGLVVFAIVFGVALRKLGPEGELLIRFFNSFNEATMVLVSWIMWYAPVGIMFLVAGKIVEMEDVGLLFARLGKYILCCLLGHAIHGLLVLPLIYFLFTRKNPYRFLWGIVTPLATAFGTSSSSATLPLMMKCVEENNGVAKHISRFILPIGATVNMDGAALFQCVAAVFIAQLSQQSLDFVKIITILVTATASSVGAAGIPAGGVLTLAIILEAVNLPVDHISLILAVDWLVDRSCTVLNVEGDALGAGLLQNYVDRTESRSTEPELIQVKSELPLDPLPVPTEEGNPLLKHYRGPAGDATVASEKESVM [SLC1A5],0.196,–,65.7,-0.123,-1.47,-1.94
MVAGSDAGRALGVLSVVCLLHCFGFISCFSQQIYGVVYGNVTFHVPSNVPLKEVLWKKQKDKVAELENSEFRAFSSFKNRVYLDTVSGSLTIYNLTSSDEDEYEMESPNITDTMKFFLYVLESLPSPTLTCALTNGSIEVQCMIPEHYNSHRGLIMYSWDCPMEQCKRNSTSIYFKMENDLPQKIQCTLSNPLFNTTSSIILTTCIPSSGHSRHRYALIPIPLAVITTCIVLYMNGILKCDRKPDRTNSN [CD58],-0.813,55.3,–,0.319,-0.387,-1.23
MVDLTQVMDDEVFMAFASYATIILSKMMLMSTATAFYRLTRKVFANPEDCVAFGKGENAKKYLRTDDRVERVRRAHLNDLENIIPFLGIGLLYSLSGPDPSTAILHFRLFVGARIYHTIAYLTPLPQPNRALSFFVGYGVTLSMAYRLLKSKLYL [MGST1],-0.321,56.8,58,-0.17,0.0202,-1.77
MVEADRPGKLFIGGLNTETNEKALETVFGKYGRIVEVLLIKDRETNKSRGFAFVTFESPADAKDAARDMNGKSLDGKAIKVEQATKPSFERGRHGPPPPPRSRGPPRGFGAGRGGSGGTRGPPSRGGHMDDGGYSMNFNMSSSRGPLPVKRGPPPRSGGPSPKRSAPSGLVRSSSGMGGRAPLSRGRDSYGGPPRREPLPSRRDVYLSPRDDGYSTKDSYSSRDYPSSRDTRDYAPPPRDYTYRDYGHSSSRDDYPSRGYGDRDGYGRDRDYSDHPSGGSYRDSYESYGNSRSAPLTRGPPPSYGGSSRYDDYSSSRDGYGGSRDSYSSSRSDLYSSCDRVGRQERGLPPSVERGYPSSRDSYSSSSRGAPRGAGPGGSRSDRGGGRSRY [RBMXL1],-0.598,46.5,51,0.637,-0.08,0.0725
